Results as given in patent US12692524B2, “Sialyltransferases and their use in producing sialylated oligosaccharides” (Chr. Hansen A/S, priority 2017, dated 2026).

B1: SiaT17: sialyltransferase of Photobacterium phosphoreum JT-ISH-467, acc. BAF63530, SEQ ID NO: 8 (protein, listed as Photobacterium phosphoreum)
chain: MGCNSDSKHNNSDGNITKNKTIEVYVDRATLPTIQQMTQIINENSNNKKLISWSRYPINDETLLESINGSFFKNRPELIKSLDSMILTNEIKKVIINGNTLWAVDVVNIIKSIEALGKKTEIELNFYDDGSAEYVRLYDFSRLPESEQEYKISLSKDNIQSSINGTQPFDNSIENIYGFSQLYPTTYHMLRADIFETNLPLTSLKRVISNNIKQMKWDYFTTFNSQQKNKFYNFTGFNPEKIKEQYKASPHENFIFIGTNSGTATAEQQIDILTEAKKPDSPIITNSIQGLDLFFKGHPSATYNQQIIDAHNMIEIYNKIPFEALIMTDALPDAVGGMGSSVFFSLPNTVENKFIFYKSDTDIENNALIQVMIELNIVNRNDVKLISDLQ
B2: SiaT21: sialyltransferase of Vibrio harveyi, acc. WP_017817635, SEQ ID NO: 21 (protein, listed as Vibrio harveyi)
chain: MDSSPENTSSTLEIYIDSATLPSLQHMVKIIDEQSGNKKLINWKRYPIDDELLLDKINALSFSDTTDLTRYMESILLIGDIKRVVINGNSLSNYNIVGVMRSINALGLDLDVEINFYDDGSAEYVRLYNFSQLPEAERELLVSMSKNNILAAVNGIGSYDSGSPENIYGFAQIYPATYHMLRADIFDTDLEIGLIRDILGDNVKQMKWGQFLGFNEEQKELFYQLTSFNPDKIQAQYKESPNKNFVFVGTNSRSATAEQQINIIKEAKKLDSEIIPNSIDGYDLFFKGHPSATYNQQIVDAHDMTEIYNRTPFEVLAMTSSLPDAVGGMGSSLFFSLPKTVETKFIFYKSGTDIESNALIQVMLKLGIITDEKVRFTTDIK
B3: SiaT22: sialyltransferase of Streptococcus entericus, acc. WP_018369230, SEQ ID NO: 13 (protein, listed as Streptococcus entericus)
chain: MKKVYFCHTVYHLLITLCKISVEEQVEIIVFDTVSNHELIVQKIRDVFVNTTVLFAEQNTDFSILEIDRATDIYVFNDWTPIGAYLRKNKLFYHLIEDGYNYHEYNVYANALTMKRRLLNFVLRREEPSGFSRYVRSIEVNRVKYLPNDCRKSKWVEKPRSALFENLVPEHKQKIITIFGLENYQDSLRGVLVLTQPLVQDYWDRDITTEEEQLEFYRQIVESYGEGEQVFFKIHPRDKVDYSSLTNVIFLKKNVPMEVYELIADCHFTKGITHSSTALDFLSCVDKKITLKQMKANS
B4: SiaT24: sialyltransferase of Avibacterium paragaffinarum, acc. WP_021724759, SEQ ID NO: 9 (protein, listed as Avibacterium paragallinarum)
chain: MRKIITFFSLFFSISAWCQKMEIYLDYASLPSLNMILNLVENKNNEKVERIIGFERFDFNKEILNSFSKERIEFSKVSILDIKEFSDKLYLNIEKSDTPVDLIIHTNLDHSVRSLLSIFKTLSPLFHKINIEKLYLYDDGSGNYVDLYQHRQENISAILIEAQKKLKDALENRETDTDKLHSLTRYTWHKIFPTEYILLRPDYLDIDEKMQPLKHFLSDTIVSMDLSRFSHFSKNQKELFLKITHFDQNIFNELNIGTKNKEYKTFIFTGTTTWEKDKKKRLNNAKLQTEILESFIKPNGKFYLGNDIKIFFKGHPKGDDINDYIIRKTGAEKIPANIPFEVLMMTNSLPDYVGGIMSTVYFSLPPKNIDKVVFLGSEKIKNENDAKSQTLSKLMLMLNVITPEQIFFEEMPNPINF

Assays:
[1] = In vitro sialylation of LNT by protein extracts, LST-a/-b quantified by LC-MS/MS; format: biochemical; conditions: 5 mM LNT, 10 mM CMP-Neu5Ac, 16 hours, LC-MS/MS; relative quantity; n.d.: not detectable
Procedure: Escherichia coli BL21(DE3) harbouring plamids encoding for 100 sialyltransferases were grown at 30° C. in 100 ml shake flasks filled with 20 ml of 2YT medium supplemented with ampicillin 100 μg ml^−1. When the cultures reached an OD600 of 0.1 to 0.3, gene expression was induced by addition of 0.3 mM IPTG and the incubation was continued for 12 to 16 hours. Cells were harvested by centrifugation and mechanically disrupted in a defined volume of 50 mM Tris-HCl pH7.5 using glass beads. The protein extract was kept on ice until the assay started. The in vitro assay was carried out in a total volume of 25 μl including 50 mM Tris-HCl pH7.5, 5 mM MgCl2, 10 mM CMP-Neu5Ac and 5 mM LNT. The assay started with the addition of 3 μl protein extract and continued for 16 hours. Product formation was determined by mass spectrometry.
Mass spectrometry analysis was performed by MRM (multiple reaction monitoring) using a LC Triple-Quadrupole MS detection system. Precursor ions are selected and analyzed in quadrupole 1, fragmentation takes place in the collision cell using argon as CID gas, selection of fragment ions is performed in quadrupole 3. Chromatographic separation of lactose, 3′-Sialyllactose and 6′-Sialyllactose after dilution of culture supernatant 1:100 with H2O (LC/MS Grade), was performed on a XBridge Amide HPLC column (3.5 μm, 2.1×50 mm (Waters, USA) with a XBridge Amide guard cartridge (3.5 μm, 2.1×10 mm) (Waters, USA). Column oven temperature of the HPLC system was 50° C. The mobile phase was composed of acetonitrile:H2O with 10 mM ammonium acetate. A 1 μl sample was injected into the instrument; the run was performed for 3.60 min with a flow rate of 400 μl/min. 3′-Sialyllactose and 6′-Sialyllactose were analyzed by MRM in ESI positive ionization mode. The mass spectrometer was operated at unit resolution. Sialyllactose forms an ion of m/z 656.2 [M+Na]. The precursor ion of Sialyllactose was further fragmented in the collision cell into the fragment ions m/z 612.15, m/z 365.15 and m/z 314.15. Collision energy, Q1 and Q3 Pre Bias were optimized for each analyte individually. Chromatographic separation of lactose, LNT-II, LNT and LST-a or -b after dilution of particle-free biocatalysis-reaction or crude extract, respectively, 1:50 with H2O (LC/MS Grade), was performed on a XBridge Amide HPLC column (3.5 μm, 2.1×50 mm (Waters, USA) with a XBridge Amide guard cartridge (3.5 μm, 2.1×10 mm) (Waters, USA). Column oven was run at 35° C. The mobile phase was composed of acetonitrile:H2O with 0.1% ammonium hydroxide. A 1 μl sample was injected into the instrument; the run was performed for 3.50 min with a flow rate of 300 μl/min. Lactose, LNT-II, LNT as well as LST-a and -b were analyzed by MRM in ESI negative ionization mode. The mass spectrometer was operated at unit resolution. Lactose forms an ion of m/z 341.00 [M−H]. The precursor ion of Lactose was further fragmented in the collision cell into the fragment ions m/z 179.15, m/z 161.15 and m/z 101.05. LNT-II forms an ion of m/z 544.20 [M−H]. The precursor ion of LNT-II was further fragmented into the fragment ions m/z 382.10, m/z 161.00 and m/z 112.90. LNT forms an ion of m/z 706.20 [M−H]. The precursor ion of LNT was further fragmented into the fragment ions m/z 382.10, m/z 202.10 and m/z 142.00. LST-a and -b forms an ion of m/z 997.20 [M−H]. The precursor ion of LST-a and-b was further fragmented into the fragment ions m/z 290.15, m/z 202.15 and m/z 142.15. Collision energy, Q1 and Q3 Pre Bias were optimized for each analyte individually. Quantification methods were established using commercially available standards (Carbosynth, Compton, UK).
Twenty eight genes were identified to produce LST-a whereas only 6 enzymes synthesized LST-b. […] Irrespectively of the protein overexpression level, sialyltransferases that produced best were selected for determination of Km and Vmax.

[2] = In vivo screening in E. coli #1363/#1730 with lactose as acceptor, sialyllactose identified by TLC; format: cell-based, Escherichia coli BL21(DE3); conditions: 1.5 mM lactose, 72 to 96 hours, qualitative via TLC
Procedure: Escherichia coli BL21(DE3) #1363 and #1730 harbouring plasmids encoding for 100 sialyltransferases were grown at 30° C. in 100 ml shake flasks filled with 20 ml of mineral salts medium (Samain et al., J. Biotech. 1999, 72:33-47) supplemented with 2% (wt/vol) glucose, ampicillin 100 μg ml^−1, kanamycin 15 μg ml^−1 and zeocin 40 μg ml^−1. When the cultures reached an OD600 of 0.1 to 0.3, gene expression was induced by addition of 0.3 mM IPTG. After an incubation for one hour, 1.5 mM lactose was added to #1363 cultures whereas 1.5 mM lactose as well as 1.5 mM sialic acid was added to #1730 cultures. The incubation continued for 72 to 96 hours. Then, cells were harvested by centrifugation and mechanically disrupted in a defined volume using glass beads. Subsequently, samples were applied to thin layer chromatography (TLC) on Silica Gel 60 F254 (Merck KGaA, Darmstadt, Germany). A mixture of butanol:acetone:acetic acid:H2O (35/35/7/23 (v/v/v/v)) was used as mobile phase. For detection of the separated substances, the TLC plate was soaked with thymol reagent (0.5 g thymol solved in 95 ml ethanol, 5 ml sulfuric acid added) and heated.
In the entire screening, thirty two genes were identified to encode for α-2,3-sialyltransferases, thus producing 3′-SL. 19 enzymes synthesized 6′-SL and were depicted as α-2,6-sialyltransferases. An α-2,3- as well as an α-2,6-sialyltransferase activity could only be observed for 3 enzymes. […] The screening appeared highly accurate since the described activities of extensively characterized sialyltransferases, e. g. […] Regarding the product formation, the experimental setting allowed a semi-quantitative comparison of the screened enzymes. But to achieve deeper knowledge about their kinetic properties, the 3 potentially best performing α-2,3- and α-2,6-sialyltransferases were applied to in vitro assays.

Molecule | Relative efficacy of sialyltransferases regarding in-vitro production of sialyllacto-N-tetraoses: LST-a [1] | Production of sialyllactose in-vivo [2]
B1 | 1.24 × 10^3 | 3′-SL
B2 | 12 | 3′-SL
B3 | 564 | 3′-SL
B4 | 835 | 3′-SL
